Data published in patent US20220402995A1 (TOSOH, published 2022).
Positions count from the first letter of the chain named.

B1: wild-type AAV-binding protein (extracellular domains 1 and 2, PKD1 and PKD2, of KIAA0319L/AAVR, positions 312-500 of SEQ ID NO: 1, with His tag) (receptor)
chain: MGSAGESVQITLPKNEVQLNAYVLQEPPKGETYTYDWQLITHPRDYSGEMEGKHSQILKLSKLTPGLYEFKVIVEGQNAHGEGYVNVTVKPEPRKNRPPIAIVSPQFQEISLPTTSTVIDGSQSTDDDKIVQYHWEELKGPLREEKISEDTAILKLSKLVPGNYTFSLTVVDSDGATNSTTANLTVNKAVDHHHHHH
notes: Expressed in E. coli; tested as extract, culture supernatant or purified protein; also called wild-type AVR; product of pET-AAVRD2
B2: AAV-binding protein No. 45 (Asn329Asp, Tyr342His, Tyr355Cys) (receptor)
chain: B1 chain with N20D, Y33H, Y46C
B3: AVR2 (AAV-binding protein No. 32, Tyr342Cys-Gly390Ser substitution product) (receptor)
chain: B1 chain with Y33C, G81S
B4: AAV-binding protein No. 43 (Leu321Pro, Tyr342Asn, Ala461Ser) (receptor)
chain: B1 chain with L12P, Y33N, A152S
B5: AAV-binding protein No. 49 (Tyr331Cys, Thr343Met, Tyr355Cys) (receptor)
chain: B1 chain with Y22C, T34M, Y46C
B6: AAV-binding protein No. 47 (Asn329Tyr, Tyr377Cys, Arg406Ser) (receptor)
chain: B1 chain with N20Y, Y68C, R97S
B7: AAV-binding protein No. 53 (Asp354Gly, Leu369Gln, Lys455Arg) (receptor)
chain: B1 chain with D45G, L60Q, K146R
B8: AVR8g (Val317Asp, Tyr342Cys, Lys362Glu, Lys371Asn, Gly390Ser, Lys399Glu, Ser476Arg, Asn487Asp) (receptor)
chain: B1 chain with V8D, Y33C, K53E, K62N, G81S, K90E, S167R, N178D
B9: AVR5eHC (AVR5e with a cysteine tag for immobilization at the C-terminus) (receptor)
chain: MGSAGESVQITLPKNEVQLNAYVLQEPPKGETCTYDWQLITHPRDYSGEMEGKHSQILKLSKLTPGLYEFKVIVEGQNAHSEGYVNVTVEPEPRKNRPPIAIVSPQFQEISLPTTSTVIDGSQSTDDDKIVQYHWEELKGPLREEKISEDTAILKLSKLVPGNYTFRLTVVDSDGATDSTTANLTVNKAVDHHHHHHCRNDTCG
notes: also called AVR5e-immobilized gel; AVR5e column
B10: AVR7a (AAV-binding protein No. 93; AVR5e + Asn324Asp, Lys362Glu) (receptor)
chain: B1 chain with N15D, Y33C, K53E, G81S, K90E, S167R, N178D
B11: AVR8a (Val317Asp, Asn324Asp, Tyr342Cys, Lys362Glu, Gly390Ser, Lys399Glu, Ser476Arg, Asn487Asp) (receptor)
chain: B1 chain with V8D, N15D, Y33C, K53E, G81S, K90E, S167R, N178D
B12: AVR5e (Tyr342Cys, Gly390Ser, Lys399Glu, Ser476Arg, Asn487Asp) (receptor)
chain: B1 chain with Y33C, G81S, K90E, S167R, N178D
B13: AVR8gHC (protein having an immobilization tag at the C-terminus of AVR8g) (receptor)
chain: B9 chain with V8D, K53E, K62N
notes: Immobilised on gel; also called AVR8gHC-immobilized gel
B14: AVR3HC (protein having an immobilization tag at the C-terminus of AVR3) (receptor)
chain: B9 chain with E90K, D178N
notes: Immobilised on gel; also called AVR3HC-immobilized gel
B15: AVR3 (AAV-binding protein No. 75; Tyr342Cys, Gly390Ser, Ser476Arg) (receptor)
chain: B1 chain with Y33C, G81S, S167R
B16: AVR5b (Ile319Phe, Lys323Glu, Tyr342Cys, Gly390Ser, Ser476Arg) (receptor)
chain: B1 chain with I10F, K14E, Y33C, G81S, S167R
B17: AVR4d (Tyr342Cys, Gly390Ser, Ser476Arg, Asn487Asp) (receptor)
chain: B1 chain with Y33C, G81S, S167R, N178D
B18: AVR4a (Ile319Phe, Tyr342Cys, Gly390Ser, Ser476Arg) (receptor)
chain: B1 chain with I10F, Y33C, G81S, S167R

The binders below were run against T1, VLP2 (virus-like particles of AAV2) (AAV2, UniProt P03135 1-735; P03135 1-598; P03135 1-533) (assay: ELISA on VLP2; A450 after 66.1°C 15 min / untreated).
T1 construct: Empty AAV2 capsid; background says about 60 protein molecules, VP1:VP2:VP3 = 1:1:10; Immobilised on the ELISA plate
T1 sequence (P03135 whole entry, chain 1 of 3): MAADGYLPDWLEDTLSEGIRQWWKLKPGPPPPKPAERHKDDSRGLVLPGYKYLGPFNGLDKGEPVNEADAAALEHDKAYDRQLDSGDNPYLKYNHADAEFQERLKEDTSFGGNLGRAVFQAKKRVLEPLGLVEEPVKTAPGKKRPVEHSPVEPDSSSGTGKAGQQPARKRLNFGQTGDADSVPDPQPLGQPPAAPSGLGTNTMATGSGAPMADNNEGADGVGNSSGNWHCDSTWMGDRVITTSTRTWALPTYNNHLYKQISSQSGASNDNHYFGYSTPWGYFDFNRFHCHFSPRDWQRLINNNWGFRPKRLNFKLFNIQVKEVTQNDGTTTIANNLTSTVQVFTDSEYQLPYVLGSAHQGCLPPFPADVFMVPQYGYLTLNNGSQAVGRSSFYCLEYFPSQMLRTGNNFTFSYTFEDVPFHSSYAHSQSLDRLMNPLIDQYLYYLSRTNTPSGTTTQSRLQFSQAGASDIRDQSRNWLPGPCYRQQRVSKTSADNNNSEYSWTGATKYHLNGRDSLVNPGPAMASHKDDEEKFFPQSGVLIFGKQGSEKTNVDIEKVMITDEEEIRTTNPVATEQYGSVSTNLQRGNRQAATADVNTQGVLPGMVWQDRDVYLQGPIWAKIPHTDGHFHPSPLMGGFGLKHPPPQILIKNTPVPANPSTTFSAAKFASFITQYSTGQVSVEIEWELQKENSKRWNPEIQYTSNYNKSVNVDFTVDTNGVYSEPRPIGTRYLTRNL
T1 sequence (P03135 139-735, tags left off, chain 2 of 3): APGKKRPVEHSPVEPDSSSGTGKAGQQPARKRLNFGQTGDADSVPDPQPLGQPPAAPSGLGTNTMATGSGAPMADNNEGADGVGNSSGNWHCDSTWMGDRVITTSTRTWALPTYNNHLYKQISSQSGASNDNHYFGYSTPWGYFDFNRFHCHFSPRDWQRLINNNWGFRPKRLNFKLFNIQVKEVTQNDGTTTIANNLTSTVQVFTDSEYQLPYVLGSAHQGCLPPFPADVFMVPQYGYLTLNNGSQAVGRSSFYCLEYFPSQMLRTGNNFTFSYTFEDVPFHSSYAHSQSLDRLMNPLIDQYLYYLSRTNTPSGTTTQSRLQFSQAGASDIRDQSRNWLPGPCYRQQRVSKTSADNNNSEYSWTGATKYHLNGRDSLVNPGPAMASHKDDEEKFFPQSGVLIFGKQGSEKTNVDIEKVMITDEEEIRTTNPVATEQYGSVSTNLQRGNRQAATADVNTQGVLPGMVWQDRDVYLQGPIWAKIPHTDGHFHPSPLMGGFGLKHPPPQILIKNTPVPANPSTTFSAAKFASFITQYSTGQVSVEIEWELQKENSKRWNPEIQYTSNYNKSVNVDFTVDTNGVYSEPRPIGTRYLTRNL
T1 sequence (P03135 203-735, chain 3 of 3): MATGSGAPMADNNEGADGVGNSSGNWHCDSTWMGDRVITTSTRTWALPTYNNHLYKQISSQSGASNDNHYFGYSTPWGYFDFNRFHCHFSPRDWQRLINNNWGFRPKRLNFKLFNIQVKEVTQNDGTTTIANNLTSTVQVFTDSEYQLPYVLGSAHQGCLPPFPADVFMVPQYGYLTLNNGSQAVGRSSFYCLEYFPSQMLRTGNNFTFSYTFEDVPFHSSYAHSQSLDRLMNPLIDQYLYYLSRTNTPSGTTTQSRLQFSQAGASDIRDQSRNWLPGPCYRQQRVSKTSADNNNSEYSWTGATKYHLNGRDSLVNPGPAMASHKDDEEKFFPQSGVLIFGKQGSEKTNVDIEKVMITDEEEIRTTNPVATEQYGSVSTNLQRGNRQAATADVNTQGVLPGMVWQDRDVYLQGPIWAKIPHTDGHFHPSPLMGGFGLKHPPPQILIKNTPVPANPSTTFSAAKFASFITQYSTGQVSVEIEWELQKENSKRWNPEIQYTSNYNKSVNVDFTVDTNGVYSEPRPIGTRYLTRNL

In order of falling “Residual activity [%]” value:
1. B3  70.5%
2. B6  58.7%
3. B5  57.3%
4. B4  56.3%
5. B2  46.7%
6. B7  23.5%
7. B1  9.6%

The binders below were run against T1, VLP2 (virus-like particles of AAV2) (assay: ELISA on VLP2; binding after pH 10.0 41.2°C 15 min / untreated).

With B8 the “Residual activity [%]” value was 23.1%.

What follows are binders tested against T2, AAV2-EGFP (AAV vector of serotype 2 carrying an EGFP gene) (AAV2, UniProt P03135 1-735; P03135 1-598; P03135 1-533) (assay: column of AVR5eHC immobilised on gel; cell extract with AAV2-EGFP applied, elution at pH 2.5).
T2 construct: Genome-containing AAV2 particle; amounts counted as vector genomes (VG) by qPCR
T2 sequence (P03135 whole entry, chain 1 of 3, the tested form may be a part): as the sequence (P03135 whole entry, chain 1 of 3) above
T2 sequence (P03135 139-735, tags left off, chain 2 of 3): as the sequence (P03135 139-735, tags left off, chain 2 of 3) above
T2 sequence (P03135 203-735, chain 3 of 3): as the sequence (P03135 203-735, chain 3 of 3) above

B9: binds.

The binders below were run against T1, VLP2 (virus-like particles of AAV2) (assay: ELISA on VLP2; A450 after pH 3.0 89.8°C 15 min / 25°C).

In order of rising “Residual activity after heat treatment [%]” value:
1. B11  52%
2. B10  54%
3. B8  55%

What follows are binders tested against T1, VLP2 (virus-like particles of AAV2) (assay: ELISA on VLP2; binding after pH 3.0 61.0°C 15 min / untreated).

In order of rising “Residual activity [%]” value:
1. B12  25.5%
2. B10  50.7%

Each binder was assayed against T2, AAV2-EGFP (AAV vector of serotype 2 …) (assay: mini column of immobilised protein loaded to breakthrough; AAV2-EGFP recovered by elution at pH 3.0, qPCR).

In order of falling “amount of AAV2-EGFP bound per 1 mL of protein-immobilized gel” value:
1. B13  1.2e+13 VG/mL (gel)
2. B14  2.8e+12 VG/mL (gel)
3. B1  8.6e+09 VG/mL (gel)

These binders were tested against T1, VLP2 (virus-like particles of AAV2) (assay: ELISA on VLP2; binding after pH 3.0 51.1°C 15 min / untreated;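 further: binding of the heat-treated AAV-binding protein to VLP2, expressed as a percentage of the binding of the same protein without heating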).

In order of rising “Residual activity [%]” value:
1. B3  25.5%
2. B15  96.3%

These binders were tested against T1, VLP2 (virus-like particles of AAV2) (assay: ELISA on VLP2; A450 after pH 2.5 30°C 2 h / untreated).

In order of rising “Residual activity [%]” value:
1. B1  7.9%
2. B7  18.2%
3. B4  41.4%
4. B6  43.6%
5. B5  52.8%
6. B2  64.4%
7. B3  70.7%

These binders were tested against T1, VLP2 (virus-like particles of AAV2) (assay: ELISA on VLP2; A450 after pH 3.0 51.5°C 15 min / 25°C).

In order of falling “Residual activity after heat treatment [%]” value:
1. B16  87%
2. B12  77%
3. B17  66%
4. B18  57%
5. B15  21%

What follows are binders tested against T1, VLP2 (virus-like particles of AAV2) (assay: ELISA on VLP2; A450 after pH 2.5 30°C 24 h / untreated).

In order of rising “Residual activity [%]” value:
1. B1  5.1%
2. B7  13.2%
3. B5  16.6%
4. B4  28.3%
5. B6  34.8%
6. B2  47.6%
7. B3  64.7%

The binders below were run against T1, VLP2 (virus-like particles of AAV2) (assay: ELISA on VLP2; A450 after 50.3°C 15 min / untreated).

In order of falling “Residual activity [%]” value:
1. B5  77.3%
2. B3  76%
3. B2  66%
4. B6  64.5%
5. B4  55.6%
6. B7  29.8%
7. B1  16.1%

These binders were tested against T1, VLP2 (virus-like particles of AAV2) (assay: ELISA on VLP2; A450 after pH 3.0 80.8°C 15 min / 25°C).

In order of rising “Residual activity after heat treatment [%]” value:
1. B10  57%
2. B11  66%
3. B8  67%

What follows are binders tested against T1, VLP2 (virus-like particles of AAV2) (assay: ELISA on VLP2; A450 after pH 3.0 60.1°C 15 min / 25°C).

In order of falling “Residual activity after heat treatment [%]” value:
1. B12  56%
2. B16  43%
3. B17  35%
4. B18  16%
5. B15  3%

The binders below were run against T1, VLP2 (virus-like particles of AAV2) (assay: ELISA on VLP2; binding after 43°C 15 min / untreated).

In order of rising “Residual activity [%]” value:
1. B1  43.4%
2. B4  84.1%
3. B7  90.5%
4. B6  92.7%
5. B2  97.2%
6. B3  97.6%
7. B5  97.7%

What follows are binders tested against T1, VLP2 (virus-like particles of AAV2) (assay: ELISA on VLP2; A450 after pH 3.0 66.1°C 15 min / 25°C).

In order of rising “Residual activity after heat treatment [%]” value:
1. B15  2%
2. B18  8%
3. B17  18%
4. B16  23%
5. B12  43%
